Results taken from paper PMC8378821.

Tests used:
[1] = target: Mycobacterium smegmatis MSMEG_6251 soluble domain (msTiME-SD) (M. smegmatis mc^2155); assay: crystal structure
[2] = target: Mycobacterium tuberculosis Rv3705c soluble domain (mtTiME-SD) (M. tuberculosis H37Rv); assay: SEC-MALS

| Substance | stoichiometry N [1] | stoichiometry N [2] |
| --- | --- | --- |
| Mycobacterium smegmatis MSMEG_6251 soluble domain (msTiME-SD) (domain or fragment) | 8 |  |
| Mycobacterium tuberculosis Rv3705c soluble domain (mtTiME-SD) (domain or fragment) |  | 16 |
